The record followed here is paper PMC5201011 (2016).

B1: GST–Tks5-PX [not stated] / FLAG–Rab40b [not stated] (parent complex)
chain 1: YCVQDATVVDVEKRRNPSKHYVYIINVTWSDSTSQTIYRRYSKFFDLQMQLLDKFPIEGGQKDPKQRIIPFLPGKILFRRSHIRDVAVKRLKPIDEYCRALVRLPPHISQCDEVFRFFEARPEDV
chain 2: MSALGSPVRAYDFLLKFLLVGDSDVGKGEILASLQDGAAESPYGHPAGIDYKTTTILLDGRRVKLQLWDTSGQGRFCTIFRSYSRGAQGVILVYDIANRWSFDGIDRWIKEIDEHAPGVPKILVGNRLHLAFKRQVPTEQAQAYAERLGVTFFEVSPLCNFNITESFTELARIVLLRHGMDRLWRPSKVLSLQDLCCRAVVSCTPVHLVDKLPLPIALRSHLKSFSMANGLNARMMHGGSYSLTTSSTHKRSSLRKVKLVRPPQSPPKNCTRNSCKIS

The variants in the test derive from B1. In words: glutathione bead pulldown, quantified immunoblot; three independent experiments; parent: 1; read off a plot. For orientation: A western blot detects proteins with antibodies after separation by electrophoresis.
chain 1 I24A: the response was around 0.86 Arbitrary Units.

Consider chain 1 Y21A, for which the response was around 0.57 Arbitrary Units.
